Test results published in publication doi:10.1101/2024.03.07.583918.

Molecular target: CheR of Pectobacterium atrosepticum SCRI1043 (Pectobacterium atrosepticum SCRI1043)
Assay: ITC

Going from NWETF [NWETF pentapeptide] to GWTTF [GWTTF pentapeptide], the Kd falls from 480 nM to 90 nM (5.3-fold). The second binds more tightly here.

Going from NWTTF [NWTTF pentapeptide] to GWQRF [GWQRF pentapeptide], the Kd falls from 1000 nM to 540 nM (1.9-fold).

Compared with GWEKF [GWEKF pentapeptide], DWTSF [DWTSF pentapeptide] is 1.8-fold higher in Kd: 200 nM for the first, 360 nM for the second.

For DWTTF [GWTTF pentapeptide with substitution of G by D at position 1], the fold decrease in affinity against GWTTF was 2.6 fold.
